In patent publication US20140235701, “NGF APTAMER AND APPLICATION THEREOF” (RIBOMIC INC., published 2014):

B1: SEQ ID NO: 162 (ssRNA)
RNA: GGGUCCUGGAUAAGAGTUUCCGUCUCGUAUCCTGUUACCC
modifications: 2'-F C5,U7,U18,U19,C20,C24,U25,U36; dT17,dT33; 2'-OH G8,G34; 2'-H A; 2'-OMe all other; idT 5' and 3'
B2: SEQ ID NO: 111(1) (ssRNA)
RNA: GGGUCCUGUCUAAGAGUUUCCGUCUCGUAGACUGUUACCC
modifications: 2'-OMe except 2'-F C5,U7,U17-19,C20,C24,U25,U33,U36, 2'-OH G8,G34, dA12,dA13; 3' idT
B3: SEQ ID NO: 17 (ssRNA)
RNA: AGAAGUGCAAUACUUUCGCGGCAUAUGUGCAAACCUUGCCACGACUAUGUGCGCAUAC
modifications: 2'-F C and U; 2'-OH G; 2'-H (deoxy) A
B4: SEQ ID NO: 7 (ssRNA)
RNA: GGGAGAACUUCGACCAGAAGACGCACCUCUUAUCACACAUGCGUCAGCCUUGUGAUACUAUGUGCGCAUACAUGGAUCCUC
modifications: 2'-F C and U; 2'-OH G; 2'-H (deoxy) A
B5: SEQ ID NO: 4 (ssRNA)
RNA: GGGAGAACUUCGACCAGAAGUACGUUAGUACGUUUGCAUAUGUACAACCUUGCAUACGAUACGUAGAUUAUGUGCGCAUACAUGGAUCCUC
modifications: 2'-F C and U; 2'-OH G; 2'-H (deoxy) A
B6: SEQ ID NO: 5 (ssRNA)
RNA: GGGAGAACUUCGACCAGAAGUUAGAAGAGGACUAGUUGCUAAUGCCCUGGUUCGUCGCUAUAUGUGCGCAUACAUGGAUCCUC
modifications: 2'-F C and U; 2'-OH G; 2'-H (deoxy) A
B7: SEQ ID NO: 2 (ssRNA)
RNA: GGGAGAACUUCGACCAGAAGUCCAAACGGGACUUUAUACCUCUGAGUCGCCUACGCUCCUAUGUGCGCAUACAUGGAUCCUC
modifications: 2'-F C and U; 2'-OH G; 2'-H (deoxy) A
B8: SEQ ID NO: 3 (ssRNA)
RNA: GGGAGAACUUCGACCAGAAGUUGGCACAUCCUGCUGCGUAGUUUCCGUCUCCGUGGCUGUUAUGUGCGCAUACAUGGAUCCUC
modifications: 2'-F C and U; 2'-OH G; 2'-H (deoxy) A

What follows are binders tested against T1, NGF (nerve growth factor) (Homo sapiens, UniProt P01138 P01138:122-241) (assay: SPR; strong neurite inhibition at 10 nM). Conditions: tags: R&D Systems; chain copies: 2.
T1 sequence (P01138 122-241, one chain of several): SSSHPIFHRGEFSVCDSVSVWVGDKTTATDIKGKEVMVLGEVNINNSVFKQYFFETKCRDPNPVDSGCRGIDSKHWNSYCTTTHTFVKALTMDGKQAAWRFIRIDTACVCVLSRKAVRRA

Binder	binding result
GGGUCCUGCUGCGUAGUUUCCGUCUGCGGAGCUGUUACCC (ssRNA, 2'-F C/U, dA, 2'-OH G) [SEQ ID NO: 94]	binds
GGGUCCUGCUGCGUAGUUUCCGUCUAUGUGGCUGUUACCC (ssRNA, 2'-F C/U, dA, 2'-OH G) [SEQ ID NO: 96]	binds
GGGUCCUGCCGCGUAGUUUCCGUCUUCGCGGUUGUUACCC (ssRNA, 2'-F C/U, dA, 2'-OH G) [SEQ ID NO: 93]	binds
GGGUCCUGCUACGUAGUUUCCGUCUGCGUGGCUGUUACCC (ssRNA, 2'-F C/U, dA, 2'-OH G) [SEQ ID NO: 97]	binds
GGGUCCUGCUGCGUAGUUUCCAUCUUCGUGGCUGUUACCC (ssRNA, 2'-F C/U, dA, 2'-OH G) [SEQ ID NO: 95]	binds
GGGUCCUGCUACGUAGUUUCCGUCUACGUGGCUGUUACCC (ssRNA, 2'-F C/U, dA, 2'-OH G) [SEQ ID NO: 98]	binds

Each binder was assayed against T1, NGF (nerve growth factor) (assay: cell_activity; neurite outgrowth inhibition). Conditions: tags: R&D Systems; chain copies: 2.
Description: The cells (2500 cells per well) were cultured for one day in an RPMI-1640 medium containing 2.5% horse serum and 1.25% fetal bovine serum in a 96 well flat-bottom plate coated with collagen type IV. […] Two days later, the cytoplasm and nuclei were stained using Cellomics Neurite Outgrowth Kit (manufactured by Thermo Scientific), and neurite length per cell was measured by Cellomics ArrayScan VTI (manufactured by Thermo Scientific). With the neurite length per cell obtained by the addition of NGF alone as inhibitory activity 0%, and that of the cell obtained by NGF free culture for 2 days as inhibitory activity 100%, the inhibitory activity of the aptamer was calculated from the neurite length per cell obtained by culturing with the addition of NGF and the aptamer in mixture.

Binder	IC50 [nM]
B1	0.033

The binders below were run against T1, NGF (nerve growth factor) (assay: SPR; binding maintained). Conditions: tags: R&D Systems; chain copies: 2.

Binder	binding result
GGGUCCUGCUGCGUAGUUUCCGUCUUCGCGGUUGUUACCC (ssRNA, 2'-F C/U, dA, 2'-OH G) [SEQ ID NO: 75]	binds
GGGUCCUGCUGCGUAGUUUCCGUCUACGUGGCUGUUACCC (ssRNA, 2'-F C/U, dA, 2'-OH G) [SEQ ID NO: 63]	binds
GGGUCCUGCUACGGAGUUUCCGUCUCGGUGGCUGUUACCC (ssRNA, 2'-F C/U, dA, 2'-OH G) [SEQ ID NO: 65]	binds
GGGUCCUGUUGCGUAGUUUCCGUCUGCGUGGCUGUUACCC (ssRNA, 2'-F C/U, dA, 2'-OH G) [SEQ ID NO: 69]	binds
GGGUCCUGUUGCGUAGUUUCCGUCUACGUGACUGUUACCC (ssRNA, 2'-F C/U, dA, 2'-OH G) [SEQ ID NO: 64]	binds

Each binder was assayed against T1, NGF (nerve growth factor) (assay: cell_activity; TF-1 cell proliferation inhibition). Conditions: tags: R&D Systems; chain copies: 2.
Description: Two NGF receptor (human TrkA and human p75) genes were introduced into TF-1 cells (ATCC Number: CRL-2003), which is a human erythroleukemic cell line, by using a retrovirus vector to give cells that highly express two receptors simultaneously and stably. The cells were suspended in an RPMI-1640 medium containing 20% fetal bovine serum, and seeded in a white 96 well flat-bottom plate at 1000 cells (50 μL) per well. […] With the amount of luminescence per well obtained by the addition of NGF alone and culture of the cells for 3 days as inhibitory activity 0%, and that of the well obtained by NGF free culture for 3 days as inhibitory activity 100%, the inhibitory activity of the aptamer was calculated from the amount of luminescence per well obtained by culturing with the addition of NGF and the aptamer in mixture.

Binder	IC50 [nM]
B1	0.014

Each binder was assayed against T1, NGF (nerve growth factor) (assay: cell_activity; neurite; TF-1 >0.3). Conditions: tags: R&D Systems; chain copies: 2.

Binder	IC50 [nM]
B2	0.06
GGGUCCUGGAUAAGAGUUUCCGUCUCGUAUCCUGUUACCC (ssRNA, as 82(48) without 5' idT; PS between A13 and G14) [SEQ ID NO: 82(61)]	0.031
GGGUCCUGGAUAAGAGUUUCCGUCUCGUAUCCUGUUACCC (ssRNA, as 82(48) without 5' idT; PS between U33 and G34) [SEQ ID NO: 82(62)]	0.039

What follows are binders tested against T1, NGF (nerve growth factor) (assay: SPR; more than 40N). Conditions: tags: R&D Systems; chain copies: 2.
Description: As the measuring apparatus, BIAcore2000 manufactured by BIAcore was used and, as the sensor chip, CM5 that reacts with an amino group was used. […] For the reaction of an amino group on the protein side and a carboxyl group on the chip side, ethyl-3-carbodiimide hydrochloride and N-hydroxysuccinimide were used. After the reaction, blocking by ethanolamine-HCl was performed. The immobilized amount of NGF was set to 3,000-4,000 RU. An aptamer for analyte was prepared to 0.15 μM-0.5 μM. As a running buffer, solution A was used. Here, solution A is a mixed solution of 145 mM sodium chloride, 5.4 mM potassium chloride, 1.8 mM calcium chloride, 0.8 mM magnesium chloride, 20 mM Tris (pH 7.6), 0.05% Tween 20. As a regeneration solution, a mixed solution of 1M NaCl and 50 mM NaOH was used. NGF was immobilized on FC2, and the results of FC1 were subtracted to give a final sensorgram.
The binding activity of these aptamers to NGF was evaluated by the surface plasmon resonance method in the same manner as in Example 1.

Binder	binding result
GUGCAAUACUUUCGCGGCAUAUGUGCAAACCUUGCCACGACUAUGUGCGC (ssRNA, 2'-F C and U; 2'-OH G; 2'-H (deoxy) A) [SEQ ID NO: 20]	binds
B3	binds
UGCAAUACUUUCGCGGCAUAUGUGCAAACCUUGCCACGACUAUGUGCG (ssRNA, 2'-F C and U; 2'-OH G; 2'-H (deoxy) A) [SEQ ID NO: 18]	binds
GGGAAUACUUUCGCGGCAUAUGUGCAAACCUUGCCACGACUAUGUCCC (ssRNA, 2'-F C and U; 2'-OH G; 2'-H (deoxy) A) [SEQ ID NO: 21]	binds
GCAAUACUUUCGCGGCAUAUGUGCAAACCUUGCCACGACUAUGUGC (ssRNA, 2'-F C and U; 2'-OH G; 2'-H (deoxy) A) [SEQ ID NO: 19]	binds

What follows are binders tested against T1, NGF (nerve growth factor) (assay: SPR; strong inhibition of NGF-receptor binding). Conditions: tags: R&D Systems; chain copies: 2.
Description: As directed in BIAcore's protocol, Protein A (21181, PIERCE) was immobilized on a CM5 sensor chip. About 700 to 1200 RU of human TrkA fused with the Fc portion of IgG (175-TK, R&D systems) or human P75 (367-NR, R&D systems) was immobilized thereon. As the analyte, a mixture of NGF (0.1 μM) and each aptamer (0.3 μM) was injected after being allowed to stand for 30 minutes. […] When NGF binds stronger to a receptor than an aptamer, the aptamer may be removed and NGF may bind to the receptor. Before starting the inhibition experiment, binding of TrkA or p75 and NGF was confirmed.

Binder	binding result
B4	binds
B5	binds
B6	binds
B7	binds
B8	binds

These binders were tested against T1, NGF (nerve growth factor) (assay: cell_activity; neurite; TF-1 <0.3). Conditions: tags: R&D Systems; chain copies: 2.

Binder	IC50 [nM]
GGGUCCUGGCCAAGAGUUUCCGUCUCGUGGUCUGUUACCC (ssRNA, 2'-F C/U, dA, 2'-OH G) [SEQ ID NO: 78]	< 0.3
GGGUCCUGACUAAGAGUUUCCGUCUCGUAGUCUGUUACCC (ssRNA, 2'-F C/U, dA, 2'-OH G) [SEQ ID NO: 77]	< 0.3
GGGUCCUGUACAAGAGUUUCCGUCUCGUGUACUGUUACCC (ssRNA, 2'-F C/U, dA, 2'-OH G) [SEQ ID NO: 83]	< 0.3
GGGUCCUGAUUAAGAGUUUCCGUCUCGUAAUCUGUUACCC (ssRNA, 2'-F C/U, dA, 2'-OH G) [SEQ ID NO: 76]	< 0.3
GGGUCCUGGUUAAGAGUUUCCGUCUCGUAACCUGUUACCC (ssRNA, 2'-F C/U, dA, 2'-OH G) [SEQ ID NO: 79]	< 0.3
GGGUCCUGGAUAAGAGUUUCCGUCUCGUAUCCUGUUACCC (ssRNA, 2'-F C/U, dA, 2'-OH G) [SEQ ID NO: 82]	< 0.3
GGGUCCUGGCUAAGAGUUUCCGUCUCGUAGUCUGUUACCC (ssRNA, 2'-F C/U, dA, 2'-OH G) [SEQ ID NO: 80]	< 0.3

These binders were tested against T1, NGF (nerve growth factor) (assay: SPR; strong binding). Conditions: tags: R&D Systems; chain copies: 2.

Binder	binding result
GGGUCCUGCUGCGCAGUUUCCGUCUGCGUGGCUGUUACCC (ssRNA, 2'-F C and U; 2'-OH G; 2'-H (deoxy) A) [SEQ ID NO: 39]	binds
GGGUCCUGCUGCGUAGUUUCCAUCUGCGUGGCUGUUACCC (ssRNA, 2'-F C and U; 2'-OH G; 2'-H (deoxy) A) [SEQ ID NO: 40]	binds
GGGUCCUGUUGCGUAGUUUCCUUCUACGUGGCUGUUACCC (ssRNA, 2'-F C and U; 2'-OH G; 2'-H (deoxy) A) [SEQ ID NO: 45]	binds
GGGUCCUGCUGCGGAGUUUCCUUCUUCGUGGCUGUUACCC (ssRNA, 2'-F C and U; 2'-OH G; 2'-H (deoxy) A) [SEQ ID NO: 43]	binds
GGGUCCUGCUGCGCAGUUUCCCUCUGCGUGGCUGUUACCC (ssRNA, 2'-F C and U; 2'-OH G; 2'-H (deoxy) A) [SEQ ID NO: 42]	binds
GGGUCCUGCUGCGAAGUUUCCUUCUUCGUGGCUGUUACCC (ssRNA, 2'-F C and U; 2'-OH G; 2'-H (deoxy) A) [SEQ ID NO: 41]	binds
